Each block holds one binder with its values, some of them ahead of it.
B1: synthetic peptide corresponding to the N-terminal 1-29 amino acid residues of human GnRH receptor (peptide)
peptide: MANSASPEQNQNHCSAINNSIPLMQGNLP
notes: Custom synthesized; also called 1-29 synthetic peptide; 1-29 peptide
B2: GHR-106 monoclonal antibody (antibody, V domains shown)
VH: QVQLKESGPGLVAPSQSLSITCTVSGFSLSRYSVHWVRQPPGKGLEWLGMIWGGGSTDYNSALKSRLSISKDNSKSQVFLKMNSLQTDDTAMYYCARGNDGYYSFAYWGQGTLVTVSS
VL: DIVMSQSPSSLAVSAGEKVTMSCKSSQSLLNSRTRKNYLAWYQQKPGQSPKLLIYWASTRESGVPDRFTGSGSGTDFTLTISSVQAEDLAVYYCKQSYNLYTFGGGTKLEIK
notes: Murine hybridoma monoclonal antibody raised against the KLH-coupled 1-29 peptide of human GnRH receptor; detected with goat anti-mouse IgG; also called ATCC PTA-10252

Tests used:
[1] = biological target: B2; assay: competition cell ELISA, free peptide against GHR-106 on OC-3-VGH cells (FIG. 3B)
human GnRH receptor = biological target: T1, human GnRH receptor (human, UniProt P30968 1-328); assay: ELISA, microwells coated with 1-29 synthetic peptide or OC-3-VGH cancer cells, AP-labeled goat anti-mouse IgG
T1 construct: whole, on cells; Endogenous receptor on human cancer cell lines; also called GnRHR1; gonadotropin releasing hormone receptor
T1 sequence (looked up): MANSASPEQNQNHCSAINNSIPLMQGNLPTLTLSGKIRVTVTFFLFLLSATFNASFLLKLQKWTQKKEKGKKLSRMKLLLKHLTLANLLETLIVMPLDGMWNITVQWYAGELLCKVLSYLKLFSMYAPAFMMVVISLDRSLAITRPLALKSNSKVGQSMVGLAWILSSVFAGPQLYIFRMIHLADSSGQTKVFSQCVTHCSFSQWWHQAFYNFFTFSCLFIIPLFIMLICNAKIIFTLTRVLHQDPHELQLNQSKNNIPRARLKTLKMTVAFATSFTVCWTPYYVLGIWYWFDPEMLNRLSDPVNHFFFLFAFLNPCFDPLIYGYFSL

[2] = biological target: B1; assay: ELISA on coated peptide
[3] = biological target: B1; assay: ELISA on coated peptide (FIG. 2A)

Binder: B1
binding result [1]: binds

Binder: B2
Kd (human GnRH receptor): 2 nM
binding result [2]: binds

binding result [3]: binds
B3: GHR-103 monoclonal antibody (antibody, V domains shown)
VH: QVQLKESGPGLVAPSQSLSITCTVSGFSLSRYSVHWVRQPPGKGLEWLGMIWGGGSTDYNSALKSRLSISKDNSKSQVFLKMNSLQTDDTAMYYCARGNDGYYSFAYWGQGTLVTVSS
VL: DIVMSQSPSSLAVSAGEKVTMSCKSSQSLLNSRTRKNYLAWYQQKPGQSPKLLIYWASTRESGVPDRFTGSGSGTDFTLTISSVQAEDLAVYYCKQSYNLYTFGGGTKLEIK
notes: Murine monoclonal

Reference: patent US20120266264A1 (VANCOUVER BIOTECH, published 2012)
